Laboratory results: paper PMC9482650, “Quantitative fragmentomics allow affinity mapping of interactomes” (Nature Communications, 2022)

T1: PDZRN3_2, Q9UPQ7
T1 sequence (Q9UPQ7 414-513, limits assumed, looked up): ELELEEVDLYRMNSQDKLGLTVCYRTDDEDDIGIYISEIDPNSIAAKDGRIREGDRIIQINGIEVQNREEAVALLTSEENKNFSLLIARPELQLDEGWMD

T2: CNKSR1, Q969H4
T2 sequence (Q969H4 191-295, limits assumed, looked up): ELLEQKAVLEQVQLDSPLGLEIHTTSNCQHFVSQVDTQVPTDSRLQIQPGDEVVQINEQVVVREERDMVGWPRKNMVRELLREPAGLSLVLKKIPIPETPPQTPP

T3: PREX2_2, Q70Z35
T3 sequence (Q70Z35 672-764, limits assumed, looked up): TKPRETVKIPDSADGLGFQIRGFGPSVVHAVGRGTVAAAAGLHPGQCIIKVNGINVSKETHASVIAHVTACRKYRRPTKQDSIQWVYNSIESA

T4: MPDZ_2, O75970
T4 sequence (O75970 252-347, limits assumed, looked up): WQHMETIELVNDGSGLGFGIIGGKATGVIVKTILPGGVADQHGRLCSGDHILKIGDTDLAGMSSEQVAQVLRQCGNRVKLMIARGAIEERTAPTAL

T5: APBA3_2, O96018
T5 sequence (O96018 480-570, limits assumed, looked up): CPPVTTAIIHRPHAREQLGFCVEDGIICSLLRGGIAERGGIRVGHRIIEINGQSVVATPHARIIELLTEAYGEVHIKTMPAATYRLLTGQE

T6: GRIP1_1, Q9Y3R0
T6 sequence (Q9Y3R0 48-146, limits assumed, looked up): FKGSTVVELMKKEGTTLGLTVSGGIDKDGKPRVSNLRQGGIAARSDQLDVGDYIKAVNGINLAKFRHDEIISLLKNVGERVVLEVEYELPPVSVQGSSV

T7: SYNPO2L, Q9H987
T7 sequence (Q9H987 1-98, limits assumed, looked up): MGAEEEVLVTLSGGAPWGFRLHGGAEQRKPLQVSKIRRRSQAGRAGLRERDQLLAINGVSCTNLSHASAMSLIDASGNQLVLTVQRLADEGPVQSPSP

T8: MPP1, Q00013
T8 sequence (Q00013 66-162, limits assumed, looked up): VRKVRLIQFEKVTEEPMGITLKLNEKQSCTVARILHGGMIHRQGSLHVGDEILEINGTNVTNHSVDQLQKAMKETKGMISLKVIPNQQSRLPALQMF

T9: SHROOM4, Q9ULL8
T9 sequence (Q9ULL8 5-102, limits assumed, looked up): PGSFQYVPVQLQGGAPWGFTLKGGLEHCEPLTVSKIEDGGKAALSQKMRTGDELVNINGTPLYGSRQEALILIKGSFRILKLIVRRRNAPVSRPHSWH

T10: PDZD2_3, O15018
T10 sequence (O15018 581-682, limits assumed, looked up): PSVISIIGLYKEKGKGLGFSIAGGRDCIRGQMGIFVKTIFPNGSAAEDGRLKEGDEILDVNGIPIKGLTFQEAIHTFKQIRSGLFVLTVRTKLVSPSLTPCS

T11: SIPA1L3, O60292
T11 sequence (O60292 961-1052, limits assumed, looked up): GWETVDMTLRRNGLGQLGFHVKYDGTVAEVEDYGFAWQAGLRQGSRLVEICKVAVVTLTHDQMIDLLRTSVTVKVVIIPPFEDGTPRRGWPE

T12: PDZD2_4, O15018
T12 sequence (O15018 723-823, limits assumed, looked up): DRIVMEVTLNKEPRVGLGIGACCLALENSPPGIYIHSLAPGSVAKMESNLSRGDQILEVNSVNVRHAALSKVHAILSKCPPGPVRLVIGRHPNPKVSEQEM

T13: GIPC1, O14908
T13 sequence (O14908 128-223, limits assumed, looked up): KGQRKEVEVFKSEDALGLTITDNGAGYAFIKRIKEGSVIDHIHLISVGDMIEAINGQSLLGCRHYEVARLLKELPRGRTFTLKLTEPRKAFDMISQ

T14: NHERF1_1, O14745
T14 sequence (O14745 9-104, limits assumed, looked up): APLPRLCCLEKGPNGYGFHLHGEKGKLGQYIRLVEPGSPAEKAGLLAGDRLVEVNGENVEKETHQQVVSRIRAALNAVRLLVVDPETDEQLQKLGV

T15: PDZD8, Q8NEN9
T15 sequence (Q8NEN9 361-459, limits assumed, looked up): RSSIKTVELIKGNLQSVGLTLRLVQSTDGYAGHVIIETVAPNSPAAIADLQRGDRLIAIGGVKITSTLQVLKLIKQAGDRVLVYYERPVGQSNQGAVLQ


What was measured:
Experiment in all cases: holdup assay
Set-up in all cases: key: below the threshold = too weak to quantify, mostly under pKd 3.1 to 4
Settings in all cases: plain residues with an end cap or a label only (N-terminal biotin on a linker: ttds)
[1] = molecular target: T1, PDZRN3_2, Q9UPQ7
[2] = molecular target: T2, CNKSR1, Q969H4
[3] = molecular target: DVL2, O14641
[4] = molecular target: T3, PREX2_2, Q70Z35
[5] = molecular target: T4, MPDZ_2, O75970
[6] = molecular target: T5, APBA3_2, O96018
[7] = molecular target: LMO7, Q8WWI1
[8] = molecular target: GIPC3, Q8TF64
[9] = molecular target: T6, GRIP1_1, Q9Y3R0
[10] = molecular target: T7, SYNPO2L, Q9H987
[11] = molecular target: T8, MPP1, Q00013
[12] = molecular target: T9, SHROOM4, Q9ULL8
[13] = molecular target: T10, PDZD2_3, O15018
[14] = molecular target: T11, SIPA1L3, O60292
[15] = molecular target: T12, PDZD2_4, O15018
[16] = molecular target: T13, GIPC1, O14908
[17] = molecular target: PDZRN4_2, Q6ZMN7
[18] = molecular target: T14, NHERF1_1, O14745
[19] = molecular target: T15, PDZD8, Q8NEN9
[20] = molecular target: PARD3_1, Q8TEW0
[21] = molecular target: PREX1_1, Q8TCU6
Sequence of PREX1_1, Q8TCU6 (Q8TCU6 608-718): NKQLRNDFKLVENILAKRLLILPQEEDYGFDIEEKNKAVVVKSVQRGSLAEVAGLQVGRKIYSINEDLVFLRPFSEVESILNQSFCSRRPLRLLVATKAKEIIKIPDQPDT

Sequence of DVL2, O14641 (O14641 260-359): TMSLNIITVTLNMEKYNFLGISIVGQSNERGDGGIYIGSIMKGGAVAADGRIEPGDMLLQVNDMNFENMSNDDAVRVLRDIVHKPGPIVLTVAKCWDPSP
Sequence of GIPC3, Q8TF64 (Q8TF64 107-202): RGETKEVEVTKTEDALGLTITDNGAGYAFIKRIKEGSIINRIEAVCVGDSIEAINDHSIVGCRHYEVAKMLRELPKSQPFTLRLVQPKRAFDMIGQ
Sequence of LMO7, Q8WWI1 (Q8WWI1 1037-1138): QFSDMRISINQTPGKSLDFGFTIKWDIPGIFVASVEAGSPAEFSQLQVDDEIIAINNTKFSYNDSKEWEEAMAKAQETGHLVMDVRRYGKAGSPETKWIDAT
Sequence of PARD3_1, Q8TEW0 (Q8TEW0 264-372): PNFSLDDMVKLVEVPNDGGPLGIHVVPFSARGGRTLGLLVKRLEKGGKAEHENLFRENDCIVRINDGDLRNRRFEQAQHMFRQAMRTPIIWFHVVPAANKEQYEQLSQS
Sequence of PDZRN4_2, Q6ZMN7 (Q6ZMN7 389-498): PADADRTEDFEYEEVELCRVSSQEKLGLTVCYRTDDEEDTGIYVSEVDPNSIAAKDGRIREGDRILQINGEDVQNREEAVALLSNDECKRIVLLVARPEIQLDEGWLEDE

| pKd [1] | pKd [2] | pKd [3] | pKd [4] | pKd [5] | pKd [6] | pKd [7] | pKd [8] | pKd [9] | pKd [10] | pKd [11] | pKd [12] | pKd [13] | pKd [14] | pKd [15] | pKd [16] | pKd [17] | pKd [18] | pKd [19] | pKd [20] | Binder | also measured |
| --- | --- | --- | --- | --- | --- | --- | --- | --- | --- | --- | --- | --- | --- | --- | --- | --- | --- | --- | --- | --- | --- |
| below the threshold | below the threshold | below the threshold | below the threshold | below the threshold | below the threshold | below the threshold | 4.39 | 4.15 | below the threshold | 4.29 | below the threshold | below the threshold | below the threshold | below the threshold | below the threshold | 4.14 | below the threshold | below the threshold | below the threshold | RPLPRKVSQL [DOCK4, Q8N1I0] | pKd [21]: below the threshold |
| below the threshold | below the threshold | below the threshold | 4.25 | below the threshold | 4.47 | 4.45 | below the threshold | below the threshold | below the threshold | 5.3 | below the threshold | below the threshold | below the threshold | below the threshold | 4.44 | 4.43 | below the threshold | below the threshold | below the threshold | RLPKIKETTV [FRMPD4, Q14CM0] | pKd [21]: 4.75 |
